Assay results: the DeepSol protein solubility set

Assay: soluble on expression in E. coli; label from the status in PepcDB or PDB records
For “MATLEDGTSEDRVANDEYKIWKKNTPFLYDLVMTHALEWPSLSVQWLPDVAKDNSDHTIHRLILGTHTSDEQNHLLISKICMPTDDAQFDASRYDTERSEYGGFGAVNGKVEPDIRINHEGEVNRARYMPQKSNIIATKSPHADVYIFDYLKHSAVPRDNTFNPLIRLKGHTKEGYGLSWNPNKEGLILSASDDQTVCHWDINANQNVAGELQAKDVFKGHESVVEDVAWHVLHDGVFGSVGDDKKLLIWDVRTSTPGHCIDAHSAEVNCLAFNPYSEFILATGSADKTVALWDLRNLRMKLHSFESHRDEIFQVQWSPHNETILASSGTDKRLHVWDLSKIGEDQSAEDAEDGPPELLFIHGGHTAKISDFSWNPNEPWVVCSVSEDNILQVWQMADNIYNEVDEETPADVVERQQ”, the “soluble on expression in E. coli” value was “not soluble”.
With “MGSDKIHHHHHHMRRCPLCTSEETAPFYQDRKRCIYRCKRCMLLFADANSHLPPSAEVKRYRSANSKDKPLQQFLSSLITQCEQQVQGPLLGLNFGRLLNPQAIDAIKARGHQLNQYDPHFAPDHTLLRLEYDFICCYRVFEHFRFPGKEWQLLCSLLKPGGWMAISTQLLTELQGFPKWHHKNNLTHVSFYQQATFQYLASQAEFRLLFASKDLILVQKPTGSGITRDPSSLI” the “soluble on expression in E. coli” value was “not soluble”.
With “SLMHHALHIKNGIVIDPKNGVKAEKMDIFVKNGKIVEESEVKGEDVKVIDANNKLVVAGGVDMHAHIAGSKINTGRTMRPEEMRVVRNIAGKFRAAVGRVLLTSPAIGYEYAKMGYTISIEAAQPPIGSPHTHEELDAIPMIDKAALPVFGNWHFVLKYVAEKDMEKLKAFIAWAIERTKGFGVKVVNPGGVGAWMYGGNVTSLDDQVPGFNVTPREIITSLVKATEELQLNHSVHLHCNRLGVPGNYETTVESIKLVDGIRNDARQVLHVTHVQFNAYAGDSWRTVASGAEAIAKTVNSMDNVTIDMGQPIFGHATAMTGDAPFQFTLHKLTGSRWSNKDSEIEGGAGIVPIAYLPKNPVHALQWAIGLELGLLIDSDKVVLTTDYPNGGPFTEYPYIMAMLMSKKMREGELERVSPFVQKASNLPAIDTEKTLEEVIHMTRSLPARVLGLPQKGHLGVGADADIAIYDLNPLDVDTSNDFEKVYKAFKTAVYTIKDGQILVKDGELVDEYWGRTYWVDATGKADMEAIKDDLNEMFSKYYTVELQNYGVEERWLRKPERIVI” the “soluble on expression in E. coli” value was “not soluble”.
For “MGSDKIHHHHHHMTGRQFDIEPLMDEINKSLKQEVNYLTEAQNTDLVKRTLTADHYVVPKVYHDYTTETVLTQSFETGLSVNQWIRSNPSRSDIQNFSQLVIQLMIDEMLLTGVVQTDPNYANFLYRPDSRQLVLLDFGATWTYSTEFRHDIHKLSMALLSGEIDKLMVGIYTRGYLDTRESDETKAQLREVLRMIGDISANLPQPVALQVDVAHDEIRAAAHVMGRGIRHTTLHKDLVLIGRKLTGMLLLLKEINAIVDFNEVRAHISAIKV”, the “soluble on expression in E. coli” value was “not soluble”.
With “EVQLVESGGGLVQPGGSLRLSCAASGFTFSRYTMSWVRQAPGKGLEWVATISGGGHTYYLDSVKGRFTISRDNSKNTLYLQMNSLRAEDTAVYYCTRGFGDGGYFDVWGQGTLVTVSSAKTTPPSVYPLAPGSAAQTNSMVTLGCLVKGYFPEPVTVTWNSGSLSSGVHTFPAVLQSDLYTLSSSVTVPSSTWPSETVTCNVAHPASSTKVDKKIVPRDCHHHHHH” the “soluble on expression in E. coli” value was “soluble”.
With “MGSDKIHHHHHHMKIKHIFTDMDGTLLDSHGSVSDTNHWSIYYSDLPITLVSARSPLEMSNIVEKLQLRTPQIAFNGNLTFTQNQFGLQIIDKNPLASETVSQLLNYISTEFPNVSLNWYSLAHWYINKQDKGTFIQKAITGIEPKIKTFDGQSEIYKIMMIVFDSQELLQLQAQLNNLNIPNISVQQSGQWYLEITSDNKTKADAVQSILDNKNLDFQEIAAIGDGHNDIPLLQSAGLAIAVDNANSEVKKHVKMVVAKNTEHGVAEAISAINTINEQVI” the “soluble on expression in E. coli” value was “not soluble”.
With “MGGFLVLNSSNNVVRTVPSKKRKHPEYKSKGSQIRELISGIRSDNLREAVRLPQGVDINEWFAMNNFFNQISLLYATLEEFCTQTTCPVMNAGRYEYRWADGTTITKPKTVSAPKYVEYLIDWVETEIDNEAIFPKNPGEPFPPNFEDFVKRILRKLFRVYAHIYYSHFHEIVALNEQAHLNTCFKHFLLFVSEFQLVDKEKEMAPIKSLVETMLDQ” the “soluble on expression in E. coli” value was “soluble”.
In the case of “MNKTIIAERFSKAISTYPREANVQRQIANKMIRLLQKHIPSPCPKVIEFGCGTGIYSRMLLRTLRPEELLLNDLCPEMRYCCEDLLREKQVSFLSGDAETISFPDKSTLITSCSALQWFDSPEEFFKRCNTLLHSQGYFAFSTFGKKNMKEIRELTGKGLPYRSREELEAALSLHFDILYSEEELIPLSFEDPMKVLYHLKQTGVNGLSAQSSLYPKHEKQTWTRRDLQHFCERYTQEFTQGTSVSLTYHPIYIIAKKKKV”, the “soluble on expression in E. coli” value is reported as “soluble”.
In the case of “MGSDKIHHHHHHMSENIRALSRGLNVLEFLSETGGATRQATVAHFGLSRPTIYRLLGTLEKSGLISLGDDGVYRPTIATRALKEGLTDDVWALWAAEPILLELQKEVVWTSEITTFDAYSCTMLKRDTTHSLNPYHINLLDFDDNHRSMLTSACGLAYLAFCPQQQRAQILEHLGHFGDRTQSDSQRPDSQRGAGAHTRNLINKVISDGYAVEQRNSYPLIAAIAVPIRYDNRVLACLSIVWLPRAVKLQDGITQFLPALKRAQSFIEQKLLDDASIEYDTNFTAKYVHHGQQHELI”, the “soluble on expression in E. coli” value is reported as “not soluble”.
For “LSFSSAVKNELCRVETDRSSSLFELAAAARISGLIKVVNANEINLRLVTENAAFARRIFSQIKDLYGINAEISIRRSPKLKKNIVYIIVLTSSKGLMRILEDINIKVSEKVEYIPYARCMRKKEYRKAYLRGAFLASGSMSDPEKTYHLEITCHNMALATEVSDLMDSFKLHSKVTKRKGNYVVYLKEGENIVDFLNIIGAHSALLELENIRILKEMRNNVNRIVNCETANLQKTVDASVRQVENINYIKEHLGFDKLPENLREIAKMRLAYSDATLKELGEMLNPPLGKSGVNHRLRKLDKIAESLRNMKGEL”, the “soluble on expression in E. coli” value was “soluble”.
For “MGHHHHHHSHKRVVLKLSGEALAGEKGFGINPVIIKSVAEQVAEVAKMDCEIAVIVGGGNIWRGKTGSDLGMDRGTADYMGMLATVMNALALQDSLEQLDCDTRVLTSIEMKQVAEPYIRRRAIRHLEKKRVVIFAAGIGNPYFSTDTTAALRAAEVEADVILMGKNNVDGVYSADPKVNKDAVKYEHLTHIQMLQEGLQVMDSTASSFCMDNNIPLTVFS”, the “soluble on expression in E. coli” value was “not soluble”.
With “SDTRQLPNRPVEVTIMGLGCAQMGNLYRVTPYEESKGAFDKAWESGMRYFDTAPFYGYTRSERRLGTMVTEHDRGDYTLSTKVGRVMVPDETVGPEEDAYIAPLPFRPVYDYSYDGILRSFEASQQRLGILKPDILYVHDIGSHTHGEKHQHYWEQLTTGGGFRALGKLRDEGSTGAVGLGVNEWEIINDAMDVFDIDVAMLAGRYTLLEQQSLAFMNRCAESGVAIVVAGAFNSGILAGNRKFNYADAPADILKRVDALHNVCEELGVSLQAAALQFPLAHPASVTVVSGARNAQQLASNIEWFEQSIPDEFWSELHK” the “soluble on expression in E. coli” value was “not soluble”.
For “MSTQTVTIKSLGAQGDGIAHCPDGPVYVPFALPGETVAIAKVKDQGTVMSITEASADRRDPVCRHFGPEGINGTCGGCSLQHLADQPYHAFKRELVVSALRSKGLTPPVDDLVICRPGERRRAVFAARKTEKGLLLGFSQANSHHIVAIEECPVTSPGIVSRFDAIRAIGLSMVANAEPFRITVLETLSGLDISVEGIKSVNDKQRRTLTETVLAMRGIARVSLSGEILIEPQKPIIEFGGIPVSPPAGGFTQATKQAEDAMAELMLAHVGKSKRIADLFCGSGTFALRLARIGRVHAVEAEDKALKALDFAARNTQGLKPVSVEKRDLFRRPLMTSELKNYDAVVFDPPRAGAEVQCKELARSTVKKIVAVSCNPLTLARDLAILTEGGYRVTRVTPVDQFLWSPHVEAVAVLEK”, the “soluble on expression in E. coli” value was “not soluble”.
For “MKAWEIARKPRVVVYPGDPLTYVRAMMRREEEPIAVVVVESEKSEKVVGYITWNEVIQVTSHYSHLRAKDAMLDYPVAFKDDDIGDVYKRMVEEKVYAIPVLESRDNPNLVGVVTVADIVRALRRAGFK”, the “soluble on expression in E. coli” value was “not soluble”.
For “MPNLSCGVDNCAYNQNDMCSLNSIKVNGSFANHSEATCCGSFVEKGGFTNAAVDMGPAEPATSVACEAEKCCYNKNCKCHAESIDISGDYAQHQDNTECSTFRQELEHHHHHH”, the “soluble on expression in E. coli” value was “soluble”.
For “MFISVLDLFKIGIGPSSSHTMGPMTAANVFRDHVDQLVSQTPDDLNYRVYCVLKGSLAFTGRGHATDRAVALGLHGHSPVSLAGEDVNALTAKLWATDTLQLTSGREIGFNPEDDIVFDKSDPLPQHPNGMIFYLLDEEGKKILSETFFSIGGGFICTLAEINQ”, the “soluble on expression in E. coli” value was “not soluble”.
For “MGSDKIHHHHHHKPGREFYASDIRESMEKGDKLAILMVHFGSAYPEARTQVLDVMNKRVKEAFPDVEVRQAYSARSVVSRLRAQGVWVQLPADALVELRDQGFTHVIIQPTIIIEGVEMEAIRKEAEQRKGLFKDLRVGNPLLYDDADYEAVMKAVSSPSGVTKNGAKLLVAHGTYHASNSAYAKLGYMFQTKGMKDYYTGTREGFPTIENVGEQMRQAGHKRVQLIPFMFVLIRGTENTVTDFWQKGLRQQGFDVDIYLKPLGENPAIRSLFIDHIRFAMKYKRATIFDRKKLYTH”, the “soluble on expression in E. coli” value was “not soluble”.
With “AIFELMNEAYAPLYGFSALSQGQINQYIKMYLPIVDLRMVTLVTDAEDKLVAVGISMPSLSEALQKAKGRLLPMGWYHLLKVLFLHKYPPMLDLLLVAVKPEYQNKGVNALLFSDLIPVYQQLGFKYA” the “soluble on expression in E. coli” value was “not soluble”.
For “MGSDKIHHHHHHMPITFVDRESELKFLESLWKRRNSFVPVYGRRRIGKTRLVKEFIKGKPSVYYLSRNSSYNDNLYGFSQVVLEAYPSPYLTPKSFSTFTDIFRYLSEKGKVVVVIDEFPYLINSDKRILSEFQYIIDEIVRNSEIHLILVGSSIGMMEEHVLSQKSPLYGRRDGQIRLHSLDFFSSWKLLGVSLEEAIKIYGVTGGIPAYLILFKKFEDLKNVAFSKQGFLYAEADFLLSSELREPRVYKLILKAIAEGKRRFNEISTFTGIPRPNLFKYIEVLERLGLLRREAPITAPPKTKNTRYKIVDNYIAFYFRFIEKYRHEIELESINFWEEFLEDYNNYLGEVFEDIACQFLVRLNKKRMFPFRFSKIGRWWHKNEEIDLVALDKREKRASFIEVKWKTLKEGEARSILRDLERKSKLVGLDYWNKNYGLIAKHIEGKENLREEGFLAWDLRDFELVKKE”, the “soluble on expression in E. coli” value was “not soluble”.
For “MSTSKRPYKILLRKVESKEENKKDTNETKKKEEESKHYEDRHYRKNDIKHYEENEKTIKSKMHYNSRNRYYDKYSMSYSRYDEKLNKQHSSEKKKDVLVPLLEQASINIKKKKIIIRKLPPTLTEENFFDSFSNNIKDELDYYYFVNGSASKDSSNDIIYSRMYLSFKDDMKTDEFIRTQNGKFFYDLNGVKYKALVSYAPNQTLIKKNKPDSRNNTLESDEYFLKCCEEMNNPVQRVKKDIDYSELINVQTENGAILSPIVIELRSKKKK”, the “soluble on expression in E. coli” value was “not soluble”.
In the case of “MGSSHHHHHHSSGLVPRGSHMMRKQRIVIKISGACLKQNDSSIIDFIKINDLAEQIEKISKKYIVSIVLGGGNIWRGSIAKELDMDRNLADNMGMMATIINGLALENALNHLNVNTIVLSAIKCDKLVHESSANNIKKAIEKEQVMIFVAGTGFPYFTTDSCAAIRAAETESSIILMGKNGVDGVYDSDPKINPNAQFYEHITFNMALTQNLKVMDATALALCQENNINLLVFNIDKPNAIVDVLEKKNKYTIVSK”, the “soluble on expression in E. coli” value is reported as “soluble”.
